Experimental data as given in the supplement of paper PMC12764529.
± gives the half width of the 95% confidence interval.

Experiment: folding stability dG unfold from chymotrypsin proteolysis; higher = more stable
Procedure: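 Folding stability of de novo designed mini-proteins (<80 aa, no Cys; designed by TrROS, TrMRF, ProteinMPNN and the joint model) was measured by cDNA display proteolysis with trypsin and chymotrypsin. Each protease was used at 11 concentrations in a threefold dilution series plus a no-protease condition. K50 was inferred by Bayesian fitting of sequencing counts, and dG unfold was derived against a sequence-predicted unfolded-state K50 (Tsuboyama et al. method). Sequences shown include variable-length N-terminal GS-type padding (SAGGSAGG...) inside a display construct carrying a PA tag. Rows were kept only if the AF2 dimer inter-PAE was >15, to exclude likely homo-oligomers.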

Row | Sequence | folding stability dG unfold
1 | SAGGSAGGSAGPDVEVVIIPVDPETGEPLDALPIPIPSPEGGLVDEIVKAIPPDRYRVLASAGGSAGGSAGG [r17_339_TrMRF] | -0.336 ± 0.45 kcal/mol
2 | SAGGSAGGSAGGMIKVLEKKEFTPPTGGKEYELKTLDESNGTESIIKFPKEEYKNLKIPSAGGSAGGSAGGS [r10_326_JUSTAS] | 0.681 ± 0.12 kcal/mol
3 | SGMVTLEDIAAAPPGTPVVVTTKKQGSKNLTFIDAVVDGARSSASYPSIEEARKELEAVGYPVEFVDPAESA [r9_1021_JUSTAS] | 0.143 ± 0.066 kcal/mol
4 | SAGGSAGGSAGGMPSSVVINLNLSKEEIEAIKKGKPVSPELKPAIEEAKKEGLKVEIKKSAGGSAGGSAGGS [r10_890_JUSTAS] | 0.796 ± 0.037 kcal/mol
5 | SAGGTIKPGQPVRIRAEWYNGNKEWTHTHEFPLPENQTLDDVADEILEHLPPEHNKNFKVRIEIEPVSAGGS [r16_321_TrROS] | 0.904 ± 0.1 kcal/mol
6 | SAGGSAGGSAGGGMKLRLVTYSITTTNKVFPSLEEALAAPPDETDGVDEIISSSLKPLLSAGGSAGGSAGGS [r10_729_JUSTAS] | 0.21 ± 0.17 kcal/mol
7 | SAIKIEDDPNGYQQIEIPNPENGRKIVITMMYSPDGQFQMSLQRMDPNGKKKTITAPMPVEEAIDELKDSAG [r14_179_TrROS] | 0.698 ± 0.33 kcal/mol
8 | SMYVFSTGSKPSSEQLLEKLEKVPNLPKELIKKNTIISDTESSPEIVIPKEVYDKIKKENPEAVKVIESGSA [r9_160_JUSTAS] | -0.991 ± 0.56 kcal/mol
9 | SAGGSAGGSGGTIKLPLYPPEGKEYKGTIPKEKLEAAIAKGEPIKVTLKTKGKEVKEYTIPIKSAGGSAGGS [r12_991_JUSTAS] | -0.582 ± 0.44 kcal/mol
10 | SAGGSAGGSAKSALDQMKGQKFTFYHPGGEQPVPITIEPDKDDNFVVKFPNKKPYPMPIDDISAGGSAGGSA [r18_169_TrROS] | -1.29 ± 0.81 kcal/mol
11 | SAGGSAGGSASMSTTEITVTELEEPGEGKRLVIETKSFTPEGKEIDSEKVEEEVREELGVKPSAGGSAGGSA [r18_332_JUSTAS] | -0.0823 ± 0.079 kcal/mol
12 | SAGGSAGGSAGGPPNKKFILRIEHPGRPITFPFKSPKGLDEAADKFPDKFGMPPKIEVHPSAGGSAGGSAGG [r7_18_TrROS] | -0.795 ± 0.92 kcal/mol
13 | SAGGSAGGSAGGKPITIERNEDNGPIEIRFPGNGRRIHFPFPPGDDITIDAEDGNIEIKSAGGSAGGSAGGS [r10_979_TrROS] | 0.827 ± 0.016 kcal/mol
14 | SAGGSAGGSAPNIRAKIEPKPDPGGPKLTIDVEDPDNPELPAEEVAKALEEEFPPDKIEPVSAGGSAGGSAG [r3_226_TrROS] | -0.7 ± 0.083 kcal/mol
15 | SAGGSAGGSELITLTEKASLAVGELNLPSPEELAKKKYPDVKPKNITVSTKPGEGLVTVTVDGKSAGGSAGG [r6_81_JUSTAS] | 0.207 ± 0.091 kcal/mol
16 | SAGGSAGGSPKKRTVEIDEWDPEEGNVRARIRDDDEEREFPFRTPEDLEDLANEGGIDKITPHSAGGSAGGS [r12_421_TrROS] | 0.518 ± 0.027 kcal/mol
17 | SAGGSAGGSKPIPIKIKARNKDDGKKREEDIQIPPEALKNGKFDKEQIKKELRKLGPRVEIEISAGGSAGGS [r20_221_TrROS] | -0.216 ± 0.18 kcal/mol
18 | SAGGSAGGSAGGGYVTLSHEIPPDQSVEITAPDGKKAKQERDPATKTVTYKISPELYKLLSAGGSAGGSAGG [r7_155_JUSTAS] | -0.855 ± 0.56 kcal/mol
19 | SAGGSAGGSAGGVRIPPGHWKHRLGFPNGKENEFNIPPGAPIEIPPNADDVKIQEIEPVPSAGGSAGGSAGG [r7_542_TrROS] | -0.251 ± 0.36 kcal/mol
20 | SAGGWVKDPDGQTVEMKVLDPGMNKDNAKPFADNIAEQLHRQHGMNPNNVKVKVETDPENGTVRVKVKSAGG [r13_913_TrROS] | -0.385 ± 0.39 kcal/mol
21 | SAGGSAMSLEELKKKKVKVKVKEIEVPKGAKIPDGKTVKEGEKILVVDGKVYLPNGKLIAEVEVEESAGGSA [r15_12_TrROS_Hall] | -0.621 ± 0.22 kcal/mol
22 | SAGGSAGGSAPGKHKTIEINGPGDVEEAVDYAKDEMPPGKPIHIRFNDEPITIPAEDAKKISAGGSAGGSAG [r3_50_TrROS] | 0.445 ± 0.047 kcal/mol
23 | SAGGSAGGSAGTATLELTVGGKKATATVEPDPDSPAPVVTVKVGDKPVVLNPDGTWTPADSAGGSAGGSAGG [r11_732_TrMRF] | -0.908 ± 0.2 kcal/mol
24 | SAGGSAGGSASLDPVVVTVTRYPTGVTTTTVSSRPGGEPVTTTTTYDPVSPVAPLPASRLASAGGSAGGSAG [r3_336_JUSTAS] | 0.59 ± 0.032 kcal/mol

Row | Sequence | folding stability dG unfold
25 | SAGGSAGGSAILRIKLEHPKSGKPMTWVIPPEMNIEQIADMLMEQHPNAEIKDIEWVPPNQISAGGSAGGSA [r18_242_TrROS] | 0.3 ± 0.12 kcal/mol
26 | SAGGAGQRVVLSSDKSLEDLEKLREENPDVSIEVTEINKLEPVKPENGGLEEVPSEIVAELTPGERRSAGGS [r8_172_JUSTAS] | 0.401 ± 0.051 kcal/mol
27 | SAGGSAGGSAGGGSVTRLPDGVTTVVTFPDGSTVTVPAGVPYTDPNAATPVTVSPVPPALSAGGSAGGSAGG [r7_968_JUSTAS] | 0.119 ± 0.1 kcal/mol
28 | SAGGSAGGSAGGPDVTTSDSVSLERLPDDTIVLRRTTTVTPPTGPPVVTSTTTVLPPSTLSAGGSAGGSAGG [r17_312_JUSTAS] | -0.319 ± 0.41 kcal/mol
29 | SAGSAVVRDFDFEVPPGYGVLDVTVTEGPGPPVWEGTVTFQAGGAPETLTVTIPVDPATGARSVAMTAGSAG [r5_136_JUSTAS] | 0.267 ± 0.13 kcal/mol
30 | SAGGSAGGSAGSMDSLPMPQVTPKVVELNVPPEEAEKLKKELGAKEIKFSPEGKLIIYLESAGGSAGGSAGG [r11_64_JUSTAS] | -0.353 ± 0.078 kcal/mol
31 | SAGEGSRSPGVVLHVTTPTEPLVVREPVAPDEDPEAVLERLAAEVRAALGPDTTVSGEVLSPAELARAASAG [r5_583_JUSTAS] | -0.465 ± 0.18 kcal/mol
32 | SSTPKLEEIERPNARFKVTTYTYPNSVKTTADATFPDGTKGKIEETYTPTPEGVKKTVKKDLPPEVKEKLES [r1_153_JUSTAS] | 0.0664 ± 0.46 kcal/mol
33 | SAGGSAGGSAGGMTTKYVITVEVPGENRTETIYLDVPPSRPEEAEALAKEISPNAKIERLSAGGSAGGSAGG [r11_250_JUSTAS] | 0.187 ± 0.16 kcal/mol
34 | SAGGSAGGSAGPMYKLKAELNNKPFEVMINPDMPPDDQIYIRDPGEWIEFNIENMKVEPVSAGGSAGGSAGG [r11_247_TrROS] | 0.298 ± 0.21 kcal/mol
35 | SAGGSAGGSAGGKDEKPKPLKVPVIVAPAPEYLELAKKLLPPDKAKVIEKKDDKVVIAFGSAGGSAGGSAGG [r7_670_TrMRF] | -0.425 ± 0.32 kcal/mol
36 | SAGGSAGGSFELPVPPNTPVDIEATVTRPDGTPATLVDAEPLGDGTFRVTVRYPDGSTETIEVSAGGSAGGS [r12_31_JUSTAS] | 0.959 ± 0.038 kcal/mol
37 | SAGGGMKTSKVSTSTTTTTVPGTGAPVTVEVTSTTTTFGPNGPAVVTTTSLTYDEAGTPTTTTTTTLSAGGS [r16_200_JUSTAS] | 0.46 ± 0.11 kcal/mol
38 | SAGGSAIKIDPDYGTIEIYNPDNGKEIEIPIDGLPPGRKMDIEINNDKIEIKMPGGTRELPIDDIKSAGGSA [r15_864_TrROS] | 0.655 ± 0.068 kcal/mol
39 | SAGGSAGGSAGGMVEVLPVPDGSTLERDPAGYVTRYDPATGTATTVPLADVELSPGSPELSAGGSAGGSAGG [r7_656_JUSTAS] | 0.679 ± 0.11 kcal/mol
40 | SAGMVIELPNATITIETVPDPSSSNKVYRVTVTAHLPDGSRPVVVLTFPENVPIEEILKEAIKAAEELLSAG [r5_704_JUSTAS] | 5.93 ± 0.14 kcal/mol
41 | SAGGSAGGSAGGSNPNKPKEFYRIEYTHGGKPHTHMFPPNEPIPPGPNMKVDPFPADDLSAGGSAGGSAGGS [r4_107_TrROS] | -0.131 ± 0.23 kcal/mol
42 | SSSSLLKSSTEEVEVSTTFTKTSPDGSLTPVGTTTEVVTKTVKTVPKEILEKLKKEKEKPLPPEGNLGYLSA [r9_1192_JUSTAS] | 0.495 ± 0.36 kcal/mol
43 | SAGGSAGGSGAEITTLPEGRALLRLYDEGGVLVEEAEVEVELDAVLVFDRDNPRIGVFGPDELSAGGSAGGS [r12_1002_TrMRF] | 0.0264 ± 0.13 kcal/mol
44 | SAGGSAGGSAGGSKPDPEIEQERNPEKGYRTIKIEFPDKPRTIMVKNLPPDDPALRDAFSAGGSAGGSAGGS [r4_328_TrROS] | -0.0426 ± 0.23 kcal/mol
45 | SAGGSAGGSAGGSMVPVPVNILKLAPGGIPLGTYPVEPLRKEGISPEEFAKKNGYIISGSAGGSAGGSAGGS [r10_153_JUSTAS] | -0.0261 ± 0.3 kcal/mol
46 | SAGGSAGGSAGQPKPLPGGGEVKVEVYPPNNGKKKKFEIPPNEPDWIKELAKPGYSVHIESAGGSAGGSAGG [r11_1006_TrROS] | 0.0183 ± 0.089 kcal/mol
47 | SAGGSAGGSAGMKDNLVVTRTYTLPDDTVLVTRATFDSNPELVTVDVTEVPLSDVAPDAVSAGGSAGGSAGG [r11_493_TrMRF] | 0.514 ± 0.11 kcal/mol
